Read-outs that look alike come from different tables or passages of the source.
Experiments:
mCherry-RAB11A [1] = target: mCherry-RAB11A (UniProt P62491); assay: FRET or BRET
mCherry-RAB11A [2] = target: mCherry-RAB11A (UniProt P62491); assay: FRET or BRET; remark: listed apart in the source

UniProt P62491, sequence (P62491 whole entry): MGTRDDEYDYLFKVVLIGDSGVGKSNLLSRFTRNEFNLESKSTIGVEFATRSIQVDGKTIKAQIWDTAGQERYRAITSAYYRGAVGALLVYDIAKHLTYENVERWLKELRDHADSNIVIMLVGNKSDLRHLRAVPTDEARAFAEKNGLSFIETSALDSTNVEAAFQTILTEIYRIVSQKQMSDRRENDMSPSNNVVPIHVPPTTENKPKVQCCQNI

- mean YFP fluorescence lifetime (FLIM) (mCherry-RAB11A [1]): 2.19 ns
- mean YFP fluorescence lifetime (FLIM) (mCherry-RAB11A [2]): 2.45 ns
Substance: KIF13A-YFP fusion protein (natural protein)

Source: paper PMC3928541
